T1: activin A (human, UniProt P08476 311-426)
T1 sequence (looked up): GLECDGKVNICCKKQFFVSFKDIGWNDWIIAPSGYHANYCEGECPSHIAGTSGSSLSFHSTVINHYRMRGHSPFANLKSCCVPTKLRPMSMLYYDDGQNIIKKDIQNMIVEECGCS

T2: GDF11 (human, UniProt O95390 299-407)
T2 construct: source: generated in house
T2 sequence (looked up): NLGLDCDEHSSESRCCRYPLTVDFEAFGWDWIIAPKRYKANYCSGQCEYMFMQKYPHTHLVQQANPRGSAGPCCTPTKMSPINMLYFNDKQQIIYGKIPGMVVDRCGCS

T3: growth differentiation factor 8 (GDF8, or myostatin) (human, UniProt O14793 267-375)
T3 sequence (looked up): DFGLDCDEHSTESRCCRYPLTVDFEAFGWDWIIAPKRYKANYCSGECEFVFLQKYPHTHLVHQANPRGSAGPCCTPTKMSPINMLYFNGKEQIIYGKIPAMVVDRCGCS

T4: BMP10 (human, UniProt O95393 317-424)
T4 sequence (looked up): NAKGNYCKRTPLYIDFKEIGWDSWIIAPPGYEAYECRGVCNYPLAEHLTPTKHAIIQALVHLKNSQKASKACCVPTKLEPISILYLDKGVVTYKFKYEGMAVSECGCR

T5: activin B (human, UniProt P09529 293-407)
T5 sequence (looked up): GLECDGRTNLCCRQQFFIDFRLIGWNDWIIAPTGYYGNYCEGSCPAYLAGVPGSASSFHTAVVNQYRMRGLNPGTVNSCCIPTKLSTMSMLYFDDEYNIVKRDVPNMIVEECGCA

T6: BMP9 (human, UniProt Q9UK05 320-429)
T6 sequence (looked up): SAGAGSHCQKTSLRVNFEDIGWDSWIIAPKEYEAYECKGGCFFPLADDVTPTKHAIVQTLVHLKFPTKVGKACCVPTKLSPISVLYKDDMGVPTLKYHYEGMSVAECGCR

T7: BMP7 (human, UniProt P18075 293-431)
T7 construct: source: bought: R&D Systems
T7 sequence (looked up): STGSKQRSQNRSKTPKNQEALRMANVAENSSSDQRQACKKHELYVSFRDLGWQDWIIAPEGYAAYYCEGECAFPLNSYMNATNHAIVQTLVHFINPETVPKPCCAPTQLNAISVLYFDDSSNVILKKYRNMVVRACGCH

T8: BMP6 (human, UniProt P22004 375-513)
T8 construct: source: bought: R&D Systems
T8 sequence (looked up): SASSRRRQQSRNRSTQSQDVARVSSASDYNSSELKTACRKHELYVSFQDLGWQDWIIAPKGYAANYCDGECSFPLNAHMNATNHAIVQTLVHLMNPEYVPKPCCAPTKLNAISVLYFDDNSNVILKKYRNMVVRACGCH


Columns and labels:
activin A [1] = biological target: T1, activin A; assay: cell-based or functional assay
activin A [2] = biological target: T1, activin A; assay: SPR; Biacore 8K, 37 °C; Fc-fusion receptor dimers captured by anti-human Fc antibody on a CM5 chip (100-150 RU); ligands injected in two-fold dilution series (300 s association, 600 s dissociation); HBS-EP+ supplemented with 350 mM NaCl and 0.5 mg/mL BSA; 1:1 Langmuir model with a term for mass transport; settings: both partners purified
GDF11 [3] = biological target: T2, GDF11; assay: as above; settings: both partners purified
[4] = biological target: T3, growth differentiation factor 8 (GDF8, …); assay: cell-based or functional assay
BMP10 = biological target: T4, BMP10; assay: cell-based or functional assay
activin B = biological target: T5, activin B; assay: cell-based or functional assay
BMP9 = biological target: T6, BMP9; assay: cell-based or functional assay
GDF11 [5] = biological target: T2, GDF11; assay: cell-based or functional assay
BMP7 = biological target: T7, BMP7; assay: SPR; same experiment as a1 (Biacore 8K, 37 °C, receptor dimers captured by anti-human Fc, HBS-EP+ with 350 mM NaCl added and 0.5 mg/mL BSA) but fitted with a bivalent analyte model (bold cells of Table 1); the first binding step is the one considered; settings: both partners purified
BMP6 = biological target: T8, BMP6; assay: SPR; Biacore 8K, 37 °C; Fc-fusion receptor dimers captured by anti-human Fc antibody on a CM5 chip (100-150 RU); ligands injected in two-fold dilution series (300 s association, 600 s dissociation); HBS-EP+ supplemented with 350 mM NaCl and 0.5 mg/mL BSA; 1:1 Langmuir model with a term for mass transport; settings: both partners purified

Binder | IC50 of the trap for inhibition of ligand-induced SMAD2/3 (CAGA12) luciferase reporter signalling in A204 cells (ligand with the cells' receptors) (activin A [1]) [nM] | Kd (activin A [2]) [nM] | koff (activin A [2]) [s⁻¹] | kon (activin A [2]) [M⁻¹ s⁻¹] | Kd (GDF11 [3]) [nM] | koff (GDF11 [3]) [s⁻¹] | kon (GDF11 [3]) [M⁻¹ s⁻¹] | IC50 of the trap for inhibition of ligand-induced SMAD2/3 (CAGA12) luciferase reporter signalling in A204 cells (ligand with the cells' receptors) [4] [nM] | IC50 of the trap for inhibition of ligand-induced SMAD1/5/8 (BRE) luciferase reporter signalling in T98G cells (ligand with the cells' receptors) (BMP10) [nM] | IC50 of the trap for inhibition of ligand-induced SMAD2/3 (CAGA12) luciferase reporter signalling in A204 cells (ligand with the cells' receptors) (activin B) [nM] | IC50 of the trap for inhibition of ligand-induced SMAD1/5/8 (BRE) luciferase reporter signalling in T98G cells (ligand with the cells' receptors) (BMP9) [nM] | IC50 of the trap for inhibition of ligand-induced SMAD2/3 (CAGA12) luciferase reporter signalling in A204 cells (ligand with the cells' receptors) (GDF11 [5]) [nM] | Kd (BMP7) [nM] | koff (BMP7) [s⁻¹] | kon (BMP7) [M⁻¹ s⁻¹] | Kd (BMP6) [nM] | koff (BMP6) [s⁻¹] | kon (BMP6) [M⁻¹ s⁻¹]
ALK4-Fc:ALK4-Fc homodimer (R&D Systems Cat #808-AR-100) (Fc fusion, human, UniProt P36896-1 24-126, looked up, activin receptor-like kinase 4 (ALK4) extracellular domain, human; Bought product; source: bought: R&D Systems (Cat #808-AR-100); not shown: Fc (human)) SGPRGVQALLCACTSCLQANYTCETDGACMVSIFNLDGMEHHVRTCIPKVELVPAGKPFYCLSSEDLRNTHCCYTDYCNRIDLRVPSGHLKEPEHPSMWGPVE | > 100 | > 10 | > 0.01 | 200000 | > 10 | > 0.01 | 500000 | – | – | – | – | – | – | – | – | – | – | –
IIB-Fc:IIB-Fc homodimer (human ActRIIB ECD fused to human IgG1 Fc) (Fc fusion, UniProt Q13705-1 19-134, looked up, activin receptor type IIB (ActRIIB) extracellular domain, human, aa 19-134 of NP_001097.2; Chains linked by disulfide bonds between the Fc domains; a form with murine IgG2a Fc was used only in mice; also called ActRIIB-Fc homodimer; ActRIIB-Fc; not shown: Fc (human IgG1), C-terminal, kept) SGRGEAETRECIYYNANWELERTNQSGLERCEGEQDKRLHCYASWRNSSGTIELVKKGCWLDDFNCYDRQECVATEENPQVYFCCCEGNFCNERFTHLPEAGGPEVTYEPPPTAPT | 0.11 | – | – | – | – | – | – | 0.76 | 0.03 | 0.06 | 0.57 | 0.09 | > 10 | > 0.01 | 800000 | 0.348 | 0.00273 | 7.8e+06
IIB-Fc:ALK4-Fc heterodimer (human ActRIIB ECD-Fc paired with human ALK4 ECD-Fc) (Fc fusion) chain 1: SGRGEAETRECIYYNANWELERTNQSGLERCEGEQDKRLHCYASWRNSSGTIELVKKGCWLDDFNCYDRQECVATEENPQVYFCCCEGNFCNERFTHLPEAGGPEVTYEPPPTAPT chain 2: SGPRGVQALLCACTSCLQANYTCETDGACMVSIFNLDGMEHHVRTCIPKVELVPAGKPFYCLSSEDLRNTHCCYTDYCNRIDLRVPSGHLKEPEHPSMWGPVE | 0.19 | – | – | – | – | – | – | 2.04 | 0.7 | 0.16 | 8.47 | 0.34 | – | – | – | – | – | –
IIB-Fc:ALK7-Fc heterodimer (human ActRIIB ECD-Fc paired with human ALK7 ECD-Fc) (Fc fusion) chain 1: SGRGEAETRECIYYNANWELERTNQSGLERCEGEQDKRLHCYASWRNSSGTIELVKKGCWLDDFNCYDRQECVATEENPQVYFCCCEGNFCNERFTHLPEAGGPEVTYEPPPTAPT chain 2: GLKCVCLLCDSSNFTCQTEGACWASVMLTNGKEQVIKSCVSLPELNAQVFCHSSNNVTKTECCFTDFCNNITLHLPTASPNAPKLGPME | 2.86 | – | – | – | – | – | – | 9.15 | 2.01 | 0.26 | 31 | 2.34 | – | – | – | – | – | –
IIB-Fc:ALK3-Fc heterodimer (human ActRIIB ECD-Fc paired with human ALK3 ECD-Fc) (Fc fusion) chain 1: SGRGEAETRECIYYNANWELERTNQSGLERCEGEQDKRLHCYASWRNSSGTIELVKKGCWLDDFNCYDRQECVATEENPQVYFCCCEGNFCNERFTHLPEAGGPEVTYEPPPTAPT chain 2: QNLDSMLHGTGMKSDSDQKKSENGVTLAPEDTLPFLKCYCSGHCPDDAINNTCITNGHCFAIIEEDDQGETTLASGCMKYEGSDFQCKDSPKAQLRRTIECCRTNLCNQYLQPTLPPVVIGPFFDGSIR | 2.62 | – | – | – | – | – | – | 10.8 | 1.1 | 1.65 | 23.4 | 2.42 | – | – | – | – | – | –
